The values below come from paper PMC5159555 (Nucleic Acids Research, 2016).

Where two headings read alike, the source gives them in different places.

One experiment concerns the target chicken FANCD2 (chicken, UniProt Q68Y81 1-1439). As to the kind of experiment: SEC.
The target of experiment [1] is T1, His6-tagged chicken FANCI (chicken, UniProt B0I564 1-1338).
T1 sequence (looked up): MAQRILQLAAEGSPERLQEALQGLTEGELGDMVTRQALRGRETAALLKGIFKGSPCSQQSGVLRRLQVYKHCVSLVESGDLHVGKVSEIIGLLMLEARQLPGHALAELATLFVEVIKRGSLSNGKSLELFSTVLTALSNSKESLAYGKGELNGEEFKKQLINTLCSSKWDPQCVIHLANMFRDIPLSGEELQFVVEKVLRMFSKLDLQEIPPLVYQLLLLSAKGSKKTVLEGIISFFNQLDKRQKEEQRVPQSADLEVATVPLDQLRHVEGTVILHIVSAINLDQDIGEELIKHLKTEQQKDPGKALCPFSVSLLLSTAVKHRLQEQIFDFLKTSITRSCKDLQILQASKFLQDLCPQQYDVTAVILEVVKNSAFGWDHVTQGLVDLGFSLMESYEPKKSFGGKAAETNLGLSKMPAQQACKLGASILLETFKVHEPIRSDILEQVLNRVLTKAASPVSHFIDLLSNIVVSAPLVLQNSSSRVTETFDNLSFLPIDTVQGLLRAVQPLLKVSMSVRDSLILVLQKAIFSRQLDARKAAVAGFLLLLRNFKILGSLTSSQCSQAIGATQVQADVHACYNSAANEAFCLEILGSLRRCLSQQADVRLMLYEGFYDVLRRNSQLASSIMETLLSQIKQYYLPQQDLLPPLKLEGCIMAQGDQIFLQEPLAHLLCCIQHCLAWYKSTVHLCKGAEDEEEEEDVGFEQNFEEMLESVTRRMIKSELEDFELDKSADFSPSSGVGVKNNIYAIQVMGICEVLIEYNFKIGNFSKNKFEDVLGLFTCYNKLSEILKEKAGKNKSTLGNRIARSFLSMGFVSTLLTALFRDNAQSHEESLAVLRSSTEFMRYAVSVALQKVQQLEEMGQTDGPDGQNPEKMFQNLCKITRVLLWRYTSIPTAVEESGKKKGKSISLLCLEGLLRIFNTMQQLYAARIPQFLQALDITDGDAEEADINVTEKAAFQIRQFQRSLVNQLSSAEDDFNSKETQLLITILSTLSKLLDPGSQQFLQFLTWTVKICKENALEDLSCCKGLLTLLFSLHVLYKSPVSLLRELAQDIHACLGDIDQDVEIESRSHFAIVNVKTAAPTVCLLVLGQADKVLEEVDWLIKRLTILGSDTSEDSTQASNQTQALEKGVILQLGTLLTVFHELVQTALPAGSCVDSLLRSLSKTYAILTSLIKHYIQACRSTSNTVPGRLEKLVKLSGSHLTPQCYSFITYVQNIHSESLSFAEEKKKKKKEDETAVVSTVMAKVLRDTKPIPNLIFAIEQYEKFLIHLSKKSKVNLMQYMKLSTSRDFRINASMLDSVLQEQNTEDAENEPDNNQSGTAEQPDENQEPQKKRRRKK
As to the kind of experiment: pull-down.

Experiment [2] addresses His6-tagged chicken FANCD2 (chicken, UniProt Q68Y81 1-1439). As to the kind of experiment: pull-down.
In experiment [3] the target is His6-tagged FANCD2 complexed with FANCI (chicken, UniProt Q68Y81 1-1439; B0I564 1-1338). As to the kind of experiment: pull-down.
The target of experiment [4] is T2, FANCI-FANCD2 (I-D) complex (chicken, UniProt B0I564 1-1338; Q68Y81 1-1439). As to the kind of experiment: pull-down.
Experiment [5] has as its target T2, FANCI-FANCD2 (I-D) complex. Description: pull-down. This is another data set of the same source.

T2 sequence (Q68Y81 whole entry, one chain of several): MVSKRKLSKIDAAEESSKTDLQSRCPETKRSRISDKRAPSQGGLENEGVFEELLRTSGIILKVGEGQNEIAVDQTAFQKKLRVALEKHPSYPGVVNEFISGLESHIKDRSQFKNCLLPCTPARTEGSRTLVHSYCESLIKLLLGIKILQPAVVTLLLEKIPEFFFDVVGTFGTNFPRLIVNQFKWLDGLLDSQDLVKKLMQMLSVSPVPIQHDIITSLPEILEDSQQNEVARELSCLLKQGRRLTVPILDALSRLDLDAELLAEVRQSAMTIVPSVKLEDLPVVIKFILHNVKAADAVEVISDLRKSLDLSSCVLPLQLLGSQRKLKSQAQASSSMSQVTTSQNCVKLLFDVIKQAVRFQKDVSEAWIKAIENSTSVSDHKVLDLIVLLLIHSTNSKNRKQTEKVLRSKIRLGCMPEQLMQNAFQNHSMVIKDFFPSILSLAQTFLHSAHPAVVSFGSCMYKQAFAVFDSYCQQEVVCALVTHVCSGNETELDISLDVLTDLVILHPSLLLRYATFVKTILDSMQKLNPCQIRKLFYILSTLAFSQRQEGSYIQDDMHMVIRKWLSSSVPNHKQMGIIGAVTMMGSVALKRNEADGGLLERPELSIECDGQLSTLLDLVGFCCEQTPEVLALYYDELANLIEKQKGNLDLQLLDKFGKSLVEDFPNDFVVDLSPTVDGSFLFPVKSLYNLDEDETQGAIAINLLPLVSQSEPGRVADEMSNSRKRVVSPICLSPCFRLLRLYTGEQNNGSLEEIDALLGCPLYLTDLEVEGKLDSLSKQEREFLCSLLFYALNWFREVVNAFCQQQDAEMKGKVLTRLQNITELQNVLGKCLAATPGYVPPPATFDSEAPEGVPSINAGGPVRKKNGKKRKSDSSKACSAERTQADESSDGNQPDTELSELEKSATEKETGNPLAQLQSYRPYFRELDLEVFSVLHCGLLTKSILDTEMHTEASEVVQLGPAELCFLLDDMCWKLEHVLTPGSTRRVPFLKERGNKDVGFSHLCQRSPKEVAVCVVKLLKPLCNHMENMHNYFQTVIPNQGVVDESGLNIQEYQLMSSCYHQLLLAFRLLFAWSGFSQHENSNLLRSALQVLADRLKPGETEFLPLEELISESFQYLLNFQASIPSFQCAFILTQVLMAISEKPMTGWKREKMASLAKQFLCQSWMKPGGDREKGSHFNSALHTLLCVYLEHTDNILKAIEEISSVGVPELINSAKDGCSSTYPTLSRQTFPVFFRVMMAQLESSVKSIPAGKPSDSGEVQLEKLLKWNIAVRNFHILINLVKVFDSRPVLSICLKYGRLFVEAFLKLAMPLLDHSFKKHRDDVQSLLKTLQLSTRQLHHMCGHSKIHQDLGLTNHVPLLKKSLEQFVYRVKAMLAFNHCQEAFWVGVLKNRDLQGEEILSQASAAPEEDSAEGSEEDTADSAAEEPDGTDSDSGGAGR
Chain of His6-tagged FANCD2 complexed with FANCI (Q68Y81 whole entry, one chain of several): as above
Chain of chicken FANCD2 (Q68Y81 whole entry): as the sequence (Q68Y81 whole entry, one chain of several) above
Chain of His6-tagged chicken FANCD2 (Q68Y81 whole entry): as the sequence (Q68Y81 whole entry, one chain of several) above

B1: chicken FANCI (natural protein, UniProt B0I564 1-1338, looked up)
chain: MAQRILQLAAEGSPERLQEALQGLTEGELGDMVTRQALRGRETAALLKGIFKGSPCSQQSGVLRRLQVYKHCVSLVESGDLHVGKVSEIIGLLMLEARQLPGHALAELATLFVEVIKRGSLSNGKSLELFSTVLTALSNSKESLAYGKGELNGEEFKKQLINTLCSSKWDPQCVIHLANMFRDIPLSGEELQFVVEKVLRMFSKLDLQEIPPLVYQLLLLSAKGSKKTVLEGIISFFNQLDKRQKEEQRVPQSADLEVATVPLDQLRHVEGTVILHIVSAINLDQDIGEELIKHLKTEQQKDPGKALCPFSVSLLLSTAVKHRLQEQIFDFLKTSITRSCKDLQILQASKFLQDLCPQQYDVTAVILEVVKNSAFGWDHVTQGLVDLGFSLMESYEPKKSFGGKAAETNLGLSKMPAQQACKLGASILLETFKVHEPIRSDILEQVLNRVLTKAASPVSHFIDLLSNIVVSAPLVLQNSSSRVTETFDNLSFLPIDTVQGLLRAVQPLLKVSMSVRDSLILVLQKAIFSRQLDARKAAVAGFLLLLRNFKILGSLTSSQCSQAIGATQVQADVHACYNSAANEAFCLEILGSLRRCLSQQADVRLMLYEGFYDVLRRNSQLASSIMETLLSQIKQYYLPQQDLLPPLKLEGCIMAQGDQIFLQEPLAHLLCCIQHCLAWYKSTVHLCKGAEDEEEEEDVGFEQNFEEMLESVTRRMIKSELEDFELDKSADFSPSSGVGVKNNIYAIQVMGICEVLIEYNFKIGNFSKNKFEDVLGLFTCYNKLSEILKEKAGKNKSTLGNRIARSFLSMGFVSTLLTALFRDNAQSHEESLAVLRSSTEFMRYAVSVALQKVQQLEEMGQTDGPDGQNPEKMFQNLCKITRVLLWRYTSIPTAVEESGKKKGKSISLLCLEGLLRIFNTMQQLYAARIPQFLQALDITDGDAEEADINVTEKAAFQIRQFQRSLVNQLSSAEDDFNSKETQLLITILSTLSKLLDPGSQQFLQFLTWTVKICKENALEDLSCCKGLLTLLFSLHVLYKSPVSLLRELAQDIHACLGDIDQDVEIESRSHFAIVNVKTAAPTVCLLVLGQADKVLEEVDWLIKRLTILGSDTSEDSTQASNQTQALEKGVILQLGTLLTVFHELVQTALPAGSCVDSLLRSLSKTYAILTSLIKHYIQACRSTSNTVPGRLEKLVKLSGSHLTPQCYSFITYVQNIHSESLSFAEEKKKKKKEDETAVVSTVMAKVLRDTKPIPNLIFAIEQYEKFLIHLSKKSKVNLMQYMKLSTSRDFRINASMLDSVLQEQNTEDAENEPDNNQSGTAEQPDENQEPQKKRRRKK
With B1, the binding result with chicken FANCD2 is listed as “binds”.

B2: chicken RAD51 (natural protein, UniProt P37383 1-339, looked up)
chain: MAMQVQFEASTDTSAEEESFGPEPISRLEQCGINANDVKKLEEAGYHTVESVAHAPKKELLNIKGISEAKADKILAEAAKLVPMGFTTATEFHQRRSEIIQITTGSKELDKLLQGGIETGSITELFGEFRTGKTQLCHTLAVTCQLPIDRGGGEGKAMYIDTEGTFRPERLLAVAERYGLSGSDVLDNVAYARGFNTDHQTQLLYQASAMMAESRYALLIVDSATALYRTDYSGRGELSARQMHLARFLRMLLRLADEFGVAVVITNQVVAQVDGAAMFAADPKKPIGGNIIAHASTTRLYLRKGRGETRICKIYDSPCLPEAEAMFAINADGVGDAKE
For the molecule B2, the binding result in experiment [1], in experiment [2], in experiment [3] and in experiment [4] was “binds” in each case.

B3: His6-tagged chicken RAD51 F86E mutant (natural protein, UniProt P37383 1-339, looked up)
chain: MAMQVQFEASTDTSAEEESFGPEPISRLEQCGINANDVKKLEEAGYHTVESVAHAPKKELLNIKGISEAKADKILAEAAKLVPMGETTATEFHQRRSEIIQITTGSKELDKLLQGGIETGSITELFGEFRTGKTQLCHTLAVTCQLPIDRGGGEGKAMYIDTEGTFRPERLLAVAERYGLSGSDVLDNVAYARGFNTDHQTQLLYQASAMMAESRYALLIVDSATALYRTDYSGRGELSARQMHLARFLRMLLRLADEFGVAVVITNQVVAQVDGAAMFAADPKKPIGGNIIAHASTTRLYLRKGRGETRICKIYDSPCLPEAEAMFAINADGVGDAKE
For the molecule B3, the binding result in experiment [5] is reported as “binds”.

B4: His6-tagged chicken RAD51 (natural protein, UniProt P37383 1-339, looked up)
chain: MAMQVQFEASTDTSAEEESFGPEPISRLEQCGINANDVKKLEEAGYHTVESVAHAPKKELLNIKGISEAKADKILAEAAKLVPMGFTTATEFHQRRSEIIQITTGSKELDKLLQGGIETGSITELFGEFRTGKTQLCHTLAVTCQLPIDRGGGEGKAMYIDTEGTFRPERLLAVAERYGLSGSDVLDNVAYARGFNTDHQTQLLYQASAMMAESRYALLIVDSATALYRTDYSGRGELSARQMHLARFLRMLLRLADEFGVAVVITNQVVAQVDGAAMFAADPKKPIGGNIIAHASTTRLYLRKGRGETRICKIYDSPCLPEAEAMFAINADGVGDAKE
For the molecule B4, the binding result in experiment [5] is given as “binds”.
